The target in assay [1] is Recombinant Cyno CD200R, His-tagged (Creative Biomart CD200R1-3483C) (cynomolgus monkey). Nature of the assay: SPR (BIAcore), DS-155 captured (0.5 ug/mL), CynoCD200R1 flowed at 1000 nM to 62.5 nM, 25 C, 1:1 Binding model, run 2. (In general: SPR reads the build-up and loss of mass on a sensor chip optically.)
For assay [2] the target is unchanged. Nature of the assay: SPR (BIAcore T200), CD200-Fc captured on anti-human Fc, cyno CD200R flowed, 25 C, 1:1 fit, mean of two runs.
Assay [3] has the same target. Nature of the assay: SPR (BIAcore), DS-155 captured (0.5 ug/mL), CynoCD200R1 flowed at 1000 nM to 62.5 nM, 25 C, 1:1 Binding model, run 1.
The target in assay [4] is Human CD200R, full length, on transduced U937 cells (U937-CD200R) (human) (UniProt Q8TD46). In words: cell-based or functional assay.
In assay [5] the target is Recombinant Human CD200R, His-tagged (Creative Biomart CD200R1-320H) (human) (UniProt Q8TD46). In words: SPR (BIAcore T200), CD200-Fc captured on anti-human Fc, CD200R flowed, 25 C, 1:1 fit.
Assay [6] shares this target. In words: SPR, CD200R flowed over immobilized CD200-Fc, 25 C, 1:1 fit.
Assay [7] has the same target. Nature of the assay: SPR (BIAcore T200), CD200-Fc captured on anti-human Fc, CD200R flowed, 25 C, 1:1 fit, mean of two runs.
For assay [8] the target is unchanged. Nature of the assay: SPR (BIAcore), DS-155 captured (0.5 ug/mL), HuCD200R1 flowed at 500 nM to 31.25 nM, 25 C, 1:1 Binding model, run 1.
The target is the same in assay [9]. In words: SPR (BIAcore), DS-155 captured (0.5 ug/mL), HuCD200R1 flowed at 500 nM to 31.25 nM, 25 C, 1:1 Binding model, run 2.
The target of assay [10] is Recombinant Cyno CD200R, His-tagged (Creative Biomart CD200R1-3483C) (cynomolgus monkey). In words: SPR, cyno CD200R1 flowed over immobilized CD200-Fc, 25 C, 1:1 fit.
Assay [11] has the same target. Nature of the assay: SPR, cyno CD200R1 flowed over immobilized CD200-Fc, 25 C, 1:1 fit, mean of 2 experiments with standard deviation.
Assay [12] concerns the target Recombinant Human CD200R, His-tagged (Creative Biomart CD200R1-320H) (human) (UniProt Q8TD46). Nature of the assay: SPR, CD200R flowed over immobilized CD200-Fc, 25 C, 1:1 fit, mean of 2 experiments with standard deviation.
The target of assay [13] is Recombinant Cyno CD200R, His-tagged (Creative Biomart CD200R1-3483C) (cynomolgus monkey). In words: SPR (BIAcore T200), CD200-Fc captured on anti-human Fc, cyno CD200R flowed, 25 C, 1:1 fit.

Chain of Recombinant Human CD200R, His-tagged (Creative Biomart CD200R1-320H) (human) (Q8TD46 27-266 limits assumed): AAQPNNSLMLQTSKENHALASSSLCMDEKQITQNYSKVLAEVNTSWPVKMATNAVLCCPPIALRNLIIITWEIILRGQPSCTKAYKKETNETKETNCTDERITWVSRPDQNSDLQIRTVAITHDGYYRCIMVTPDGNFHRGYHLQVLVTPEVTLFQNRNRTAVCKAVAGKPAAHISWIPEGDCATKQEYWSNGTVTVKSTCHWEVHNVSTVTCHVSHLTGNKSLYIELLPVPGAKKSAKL
Chain of Human CD200R, full length, on transduced U937 cells (U937-CD200R) (human) (Q8TD46 25-348): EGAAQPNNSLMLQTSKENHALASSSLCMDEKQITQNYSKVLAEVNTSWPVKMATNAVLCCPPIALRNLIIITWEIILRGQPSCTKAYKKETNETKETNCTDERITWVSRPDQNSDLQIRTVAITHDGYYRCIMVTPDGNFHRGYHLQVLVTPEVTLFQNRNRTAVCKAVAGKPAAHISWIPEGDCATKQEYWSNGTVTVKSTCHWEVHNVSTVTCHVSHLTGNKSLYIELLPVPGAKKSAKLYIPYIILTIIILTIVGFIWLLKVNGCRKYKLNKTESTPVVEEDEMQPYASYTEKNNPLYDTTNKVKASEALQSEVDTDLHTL

As to “DS-155 (wild-type human CD200-Fc, IgG4 S228P Fc) (from UniProt P41217 31-232) (Fc fusion)”, the Kd (commonly the free concentration of one partner at which half of the binding sites on the other are occupied at equilibrium, for simple one-to-one binding) in assay [1] was 1050 nM; in assay [2], 971 nM; in assay [3], 888 nM; in assay [7], 179 nM; in assay [8], 174 nM; in assay [9], 183 nM. In addition, the equilibrium dissociation constant (Kd) in assay [11] was determined as 971 nM; in [12], 179 nM. Besides, the off-rate constant (koff) (usually the first-order rate constant of dissociation) in [1] stood at 0.0608 s⁻¹; in assay [2], 0.0586 s⁻¹; in [3], 0.0564 s⁻¹; in assay [7] it was 0.0326 s⁻¹; in [8] it was 0.0324 s⁻¹. Also, the on-rate constant (kon) (usually a measure of how fast the partners come together) in [1] is 57600 M⁻¹ s⁻¹; in assay [2], 60600 M⁻¹ s⁻¹; in assay [3], 63500 M⁻¹ s⁻¹; in [7] it was 183000 M⁻¹ s⁻¹; in [8], 186000 M⁻¹ s⁻¹; in assay [9] it was 180000 M⁻¹ s⁻¹. The same substance gave an inhibition of LPS stimulated IL-6 release from U937-CD200R cells, IC50 in assay [4] of 0.18 µg/mL. Further, the t½ (usually the time needed for the level to fall by half in the phase considered) worked out at 21.1 s in assay [5] and 11.8 s in assay [13]. The T1/2 in [6] turned out to be 21.1 s; in assay [10] it was 11.8 s.

Values taken from patent US20260116951A1.
